± gives the standard deviation of the averaged measurements.
Test system: Saccharomyces cerevisiae
Experiment: protein stability index of tFT-peptide fusion (C-terminal peptide) (PSI (0-1 scale)); higher = more stable (slower turnover)
Details: genetic background: wild type; temperature: 30 C
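Further: PSI is a weighted mean of sequencing reads over stability bins, variants kept only with over 10 reads, mCherry proximal and sfGFP distal, peptide attached via GGGS linker.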

In order of falling protein stability index:
1. LVSFSDTPMATA  0.786 ± 0.1
2. LTVGPCQPAGEA  0.776 ± 0.065
3. LWGVGGADARLQ  0.775 ± 0.021
4. LVWGGVWGAPCR  0.774 ± 0.034
5. LTPMDVPDPLPH  0.757 ± 0.14
6. LWVSGARTTGYF  0.756 ± 0.048
7. LTLPSDSSALPA  0.748 ± 0.03
8. LSRTAFRPSLTL  0.746 ± 0.024
9. LTPFQGLHLPIP  0.745 ± 0.037
10. LVGAGREGRFVA  0.732 ± 0.083
11. LTKHQITKKAER  0.73 ± 0.078
12. LSPPPPPPVFSP  0.727 ± 0.026
13. LYPDTDSLTPLP  0.725 ± 0.05
14. LVCPLGIEGFSM  0.723 ± 0.034
15. LVWTGGLVGWLR  0.719 ± 0.2
16. LVRFVLNKYRGR  0.718 ± 0.012
17. LSVTGGRFSVSG  0.7174 ± 0.0063
18. LYSGADPLPWGR  0.716 ± 0.01
19. LYKKRSCCLSPL  0.714 ± 0.053
20. LVNLESRAGAIR  0.713 ± 0.043
21. LVLPCLLLFPPS  0.711 ± 0.047
22. MCLTPLWYPSSA  0.709 ± 0.03
23. LSMPRVHTRHRP  0.708 ± 0.014
24. MNLVEIIRGVRL  0.7063 ± 0.0051
25. MGSGRGVITTKG  0.704 ± 0.0077
26. LSPPFLLTSPLT  0.703 ± 0.046
27. MSKGKKKGVKRK  0.703 ± 0.013
28. LSPPLAPPPALP  0.701 ± 0.08
29. LWGSGRNWLLWR  0.7 ± 0.017
30. MIFCSPPPLFFP  0.7 ± 0.0013
31. MNERDKGKIKKQ  0.6974 ± 0.0069
32. LSSADSVVSSVV  0.696 ± 0.0093
33. LVRVFGQSPAPL  0.696 ± 0.031
34. MPSRTYPSPPLG  0.693 ± 0.03
35. MLLSKRHFESDV  0.692 ± 0.018
36. LVVSITGRFRRF  0.69 ± 0.03
37. LTGSGSGQGSRN  0.688 ± 0.0097
38. MGVYAVVGTHGV  0.687 ± 0.079
39. LVPDGFMLALKE  0.686 ± 0.038
40. LYVARVGQCVRD  0.686 ± 0.029
41. MNVASCRGREYV  0.686 ± 0.032
42. MSHISPFPIFPC  0.686 ± 0.0074
43. LWGWAGLRCGGF  0.685 ± 0.032
44. LSVSRLGFLLRG  0.684 ± 0.037
45. MAVVSDDRDINC  0.681 ± 0.056
46. MLSPQIERGAGR  0.681 ± 0.018
47. LSPLGLGPLLPP  0.68 ± 0.048
48. MPFYPSLLTSLL  0.678 ± 0.014
49. LSRPPSRPLPLP  0.677 ± 0.04
50. LSTYVLRTGSFP  0.677 ± 0.1
51. LTHSTLCYASDL  0.677 ± 0.018
52. LVAHLSTAPPPP  0.675 ± 0.0061
53. MEAERRKEGENS  0.673 ± 0.072
54. LWGRAVYETFQM  0.67 ± 0.063
55. LSPGLPRLLVKM  0.669 ± 0.033
56. MDGAVRRCLVRG  0.666 ± 0.062
57. MPLPRQTSAPRP  0.665 ± 0.019
58. LYPPVYRPVLSL  0.6626 ± 0.0029
59. MERAGTADGGGA  0.662 ± 0.016
60. MIIPTVLCRVDL  0.661 ± 0.022
61. LTYFSDRFVTRV  0.6579 ± 0.0051
62. LWLCLCCSPFFV  0.658 ± 0.1
63. LVQGPLSQDQPI  0.656 ± 0.029
64. MESGGVGRVVWR  0.655 ± 0.079
65. LYMSRYLQLNFG  0.653 ± 0.005
66. LVYPSPPLQPPP  0.649 ± 0.013
67. LYNFLFLLPYSL  0.647 ± 0.13
68. LSPLRPPAPSVF  0.646 ± 0.038
69. LSYWPDARRPVL  0.643 ± 0.046
70. LYITLLEFKEGR  0.643 ± 0.025
71. MGRQSCCHKTSG  0.643 ± 0.042
72. LWGGGVGGVRGV  0.641 ± 0.027
73. LYQRCVCSFREK  0.639 ± 0.016
74. LVGICERRHVHC  0.638 ± 0.11
75. LVCCRRILLNTT  0.634 ± 0.089
76. LWTASISVAEVR  0.633 ± 0.012
77. LVKRINKVNNRR  0.632 ± 0.1
78. LYHPRLAPLPRT  0.627 ± 0.042
79. LYIPQKRGLSLH  0.62 ± 0.021
80. MGGCGARAVVVG  0.6196 ± 0.0032
81. MKASRREDLCEP  0.62 ± 0.065
82. LTPCPHATPEPP  0.615 ± 0.026
83. LYSSPSLQSPNP  0.613 ± 0.021
84. LYSSMFCGTFLL  0.605 ± 0.048
85. LTFPILPVSTRV  0.603 ± 0.025
86. LVGGTVYRKPSP  0.599 ± 0.025
87. LWVGVVGGVRGV  0.598 ± 0.1
88. LVCSSVALLSVL  0.593 ± 0.018
89. MAVDSVIISAVF  0.592 ± 0.096
90. LSPPVLLAPPQH  0.59 ± 0.0098
91. LWAYRFAAGEVH  0.589 ± 0.08
92. LSYSSLGLRFSY  0.579 ± 0.02
93. LWGGPLLLPVCL  0.577 ± 0.013
94. LVVWFGYFGCLL  0.56 ± 0.063
95. LSVAYSDIIVRC  0.554 ± 0.0065
96. MCLSYLSIFLSL  0.548 ± 0.065
97. LVKVGCVGLIKC  0.545 ± 0.0066
98. LVDARVRLTFVI  0.536 ± 0.014
99. LVNSEKFCLSIC  0.535 ± 0.035
100. LTVLCWVLCYLL  0.527 ± 0.026
101. LWVREVVVVGTV  0.519 ± 0.013

From the supplement of paper PMC10724198
